Results: the supplement of paper PMC9170038

Test system: K4 kissing-loop RNA reporter
Experiment: apparent KD of K4 kissing-loop reporter; higher = weaker reporter binding
Settings: Eterna round: R107; input ligand: arginine 13.2 mM
Method: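 RNA-MaP round R107: designed RNA switches with theophylline, tryptophan, arginine or FMN aptamers are transcribed on-chip within common flanks. They are titrated with a labelled K4 kissing-loop RNA reporter in RNA-MaP buffer (100 mM Tris pH 7.5, 80 mM KCl, 4 mM MgCl2), without ligand or with the indicated ligand. Median apparent KD per design.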
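Also: bound reporter read as fluorescence of individual clusters on recovered sequencing chips by microscopy, with normalized cluster intensities fitted with a binding model.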

Sequence	apparent KD of K4 kissing-loop reporter [nM]
UGGAGUUGACGAAAAGUCAACUCCUGAGAUACCAGUGACGAAAGUCACCCUUGGCAGCUCACUGCCAGUGAUGUUGGUUCAUAAG [#03 K4 Theophylline A Same State]	197
CCAUCGCUGUUCGAUACCAGUCAUUUUUUAUUUUAUUUUUUUUUUGGAGUGAUGUUCCAAGACCCUUGGCAGCGGAUAGUGAUGG [whbob_SS_Theo_B_th80]	143
UACUAUAUUCUGUCGUUUUUAUUAGUUUGUCAGGAUAUCGUUUAUUCGAGAAGGGACACUAUCUAGUGAUGUUAGAUAUUUCUUU [JR_Nu3_ExcFMNA_Sub030]	102
UGUCAUUGGUCGGCCGCCACUUCAUGUAGAGUGAUGUUUUGUAGGACGGAUCGAAAGAUCUGUCGAAGGACCGGGACCGAUGACU [FiskerMod 15 - Jieux - Same State - Tryptophan B]	84.7
UGUCAUGGAAACAUGAACGUUAAAAUAAAUCGAGGACCGGUACGGCCGCCACUCGUAUAGCGGUCAGUGAUGUUGACUGUAGUAA [KL-SSTryp-A form2 sub8]	116
UGACUGGACUGAAGGAGCGAGCGAGACAAAGUCUCGAAAAUUCAGUGAUGUUGAUAUAUAACUCAGGUAGGUCGCAGUCUAGUCU [ArgBS 5 #SwitchBubble #StaticStem]	433
UUUAACGAGUGAUGUUCGAAAAGUAAUAGUUAGGAUAUCGUUUUUUCGAGAAGGAACUUCGAAGUGAUACGAAAGUAUCGCUUCG [FMN A 1]	359
CCUUCUCAUUUCCGUUAUCAUUGCCUUAGGAAGGAUAUCAUUAUUUUGAGAAGGUCCGUGGUCUAUUUUCCGAGUGAUGUUUGGU [theeternabot_exclusion_KL_FMN_A_45]	226
AAUAAAAUCACGGCCGCCACUGAUAUCCAUAUUAGGAGUGAUGUUCCUAUGACUAUAUAAUUUAACAGGACCGGGUGAAUAUUUA [JR_SSTryptoB_Sub024]	111
GUGGUACAGGCGGCCGCCACUAGUGAUGUUAGUGAUAGAAGAUAUAGUAAAUAUCGGCAUUUAGAUAGGACCGGGCCUGGUGGUG [xxfxcmullin]	245
CACUGGGCGAGUGAUGUUCGCUCACGUGAUACCAGUGCCAUCCAACACCCUUGGCAGCAUGCGGGCAGUGAUGUUGUCCAAAGAA [Exclusion Theophylline A GF9]	187
AUUUAGACGAGUGAUGUUCGUGAUAUUACAGAGGAUAUGCUUAAAAGCAGAAGGCUGUAUUUAUAUUUGUUAUGUAAUUUUAAAA [JR_ExcFMNA_Sub005]	95.4
UGACUGGAUGGAAGGAGCGCUAAACUCCUAGUGAUGUUAGGGAUACGAGGCAAAGCCUCGAAGCAGGUAGGUCGCCAUCUAGUCU [FiskerMod 21 - Jieux - Same State - Arginine B]	123
UAUUAAUUGUCAGGAUAUCGUAUUCGAGUGAUGUUCGUAUAUCGACGAUAGUCGAUUCUAUCUAUACGAGAAGGGACAUUAUUUA [JR_SSFMNB_Sub007]	711
CAUAGGAAACUAUGUAUCUCUCUUACUGAAGGAGCGCGUGAAAACGCAGGUAGGUCGCAGAAUUUAAAAGAGAGUGAUGUUCUCU [Ex Arginine A K4 8]	253
UUAGUUAGAUUAUUAUUAGCCUACAAUGCUAAGGAUAUCCGAAUUCGGAGAAGGUAGUGAUGUUACUUAAGUAGGCACUAACAUU [AK7 Exc FMN A]	745
GAGCCAGAGGUUGCUGCGGGUUUCAGAGAUACCAGCCGUAUUGUAGGCCCUUGGCAGCUCGAGUGAUGUUCGAGCCGCCUCUGGC [Eredorxela]	102
AGCCACGACGCGGCCGCCACUGCCAUUAAACGUAAGGCAAAUCUAAUCUUCGAGUGAUGUUCGGGCAGGACCGGGCGGAGACUUG [theeternabot_sameState_KL_Trp_B_18]	300
GCGCCGGUCUGCUUUAGAGUGAUGUUCUCCCGAGGACCGGUACGGCCGCCACUCGGCCAACGCUAUUAUCUUUGAUCCGCGGUGC [theeternabot_exclusion_KL_Trp_A_41]	840
UCAUCAUGAUGGUAGUAACCGCAUUGGGAGCGAGGACCGGUACGGCCGCCACUCGAAAUGUACAUAGCAGUAGUGAUGUUGCUGC [theeternabot_sameState_KL_Trp_A_47]	125
AAAAUAAACCAGUGAUGUUGGUGUCCAGAUACCAGCGAUAAAAGUCGCCCUUGGCAGCUGUGGACGUACAAAAUAAGUACGUCCU [MatMod 2 - Jieux - Same State - Theophylline A]	533
AAAUAGAUCAGUCACCCAGUGAUGUUGGAAGGAGCGUGCGAAAGCACAGGUAGGUCGCCAAAAUAAAAGUGGCUGAUCAAAAUAA [#SwitchBubble 5 #K4Early]	300
AUGGACUCUUCGGAGUCCGCCUUAAGGGAUACCAGUGAUGUUGGUCACCCUUGGCAGCCUAGAAAGGAAGCCACCAAAGGUGGCA [Omei v1 mod #OpenEnded #Sliding]	114
AUUCGUUUUUGUGAUACCAGACAUGUGAGUGAUGUUUACAUAUAUAUUUAAUAUUUAGCUGUCCCUUGGCAGCACUGUUUAUUUA [JR_ExcTheophyB_Sub003]	384
AGCGUCCCUACGGCCGCCACUGGGAGUGAUGUUCCCAGGUUAGGCCUGAGGAUACUAUGGAUCGCCAGGACCGGGUAGCGACCAA [Zaarin]	71.8
AGAGUACGAAAGUACUCCUCUACACACUGUCGAGGACCGGUACGGCCGCCACUCGAGUUGAGUGAUGUUCGAUAGUGUGUAGAGA [Omei KL Tryp A SS C v4]	57.3
